Experimental data from patent US10105414B2, “Peptides derived from RS1 which down-regulate glucose absorption after a glucose rich meal and increase insulin sensitivity” (Julius-Maximilians-Universität Würzburg, priority 2014, dated 2018).

Target: T1, ODC (Homo sapiens, UniProt P11926)
T1 sequence (P11926 1-461): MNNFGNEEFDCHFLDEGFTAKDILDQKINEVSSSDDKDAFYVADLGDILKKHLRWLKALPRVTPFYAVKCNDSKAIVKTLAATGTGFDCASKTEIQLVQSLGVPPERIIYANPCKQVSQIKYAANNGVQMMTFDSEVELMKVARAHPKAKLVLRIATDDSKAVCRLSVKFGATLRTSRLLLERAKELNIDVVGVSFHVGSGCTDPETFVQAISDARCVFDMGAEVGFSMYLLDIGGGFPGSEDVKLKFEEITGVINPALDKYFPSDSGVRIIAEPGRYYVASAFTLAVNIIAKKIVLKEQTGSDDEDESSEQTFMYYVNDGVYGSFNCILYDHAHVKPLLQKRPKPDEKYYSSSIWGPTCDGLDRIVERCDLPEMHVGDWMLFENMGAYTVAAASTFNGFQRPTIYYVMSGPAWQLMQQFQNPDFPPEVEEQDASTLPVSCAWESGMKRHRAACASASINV
Test: Activity of purified ODC (released CO2)
Type: biochemical
Conditions: 100 μM tripeptide, 80 ng purified ODC, 1 h, 37° C.

PEQ: reverse tripeptide PEQ as control [reference compound]
inhibition of ODC activity: not
